Measured values published in publication PMC4463457.

B1: VSV-SNAP-hD3 (VSV- and SNAP-tagged human dopamine D3 receptor) [modified: SNAP tag covalently labelled with SNAP-Lumi4-Tb or SNAP-Red; SNAP tag covalently labelled with SNAP-Lumi4-Tb or SNAP-Red] [human] / … (parent)
chain: MASLSQLSGHLNYTCGAENSTGASQARPHAYYALSYCALILAIVFGNGLVCMAVLKERALQTTTNYLVVSLAVADLLVATLVMPWVVYLEVTGGVWNFSRICCDVFVTLDVMMCTASILNLCAISIDRYTAVVMPVHYQHGTGQSSCRRVALMITAVWVLAFAVSCPLLFGFNTTGDPTVCSISNPDFVIYSSVVSFYLPFGVTVLVYARIYVVLKQRRRKRILTRQNSQCNSVRPGFPQQTLSPDPAHLELKRYYSICQDTALGGPGFQERGGELKREEKTRNSLSPTIAPKLSLEVRKLSNGRLSTSLKLGPLQPRGVPLREKKATQMVAIVLGAFIVCWLPFFLTHVLNTHCQTCHVSPELYSATTWLGYVNSALNPVIYTTFNIEFRKAFLKILSC

Variants of: B1
Experiment: htrFRET
Details: with itself; HEK293T cells transfected with increasing amounts of construct; read off a plot

Row | Variant | ratio to parent
1 | chain 1 D187A I190A V194A L199A | 0.89
2 | chain 1 R210A Y212A V213A K216A | 0.76
3 | chain 1 F394A L395A K396A | 0.5
4 | chain 1 Y31A Y32A L34A S35A | 1
